For data set [1], the target named is T1, DltA-∆P-loop mutant, C-terminal His6 tag (Lactiplantibacillus plantarum, UniProt Q88VM6 1-508, missing the loop region comprised between T152 and K160).
T1 sequence: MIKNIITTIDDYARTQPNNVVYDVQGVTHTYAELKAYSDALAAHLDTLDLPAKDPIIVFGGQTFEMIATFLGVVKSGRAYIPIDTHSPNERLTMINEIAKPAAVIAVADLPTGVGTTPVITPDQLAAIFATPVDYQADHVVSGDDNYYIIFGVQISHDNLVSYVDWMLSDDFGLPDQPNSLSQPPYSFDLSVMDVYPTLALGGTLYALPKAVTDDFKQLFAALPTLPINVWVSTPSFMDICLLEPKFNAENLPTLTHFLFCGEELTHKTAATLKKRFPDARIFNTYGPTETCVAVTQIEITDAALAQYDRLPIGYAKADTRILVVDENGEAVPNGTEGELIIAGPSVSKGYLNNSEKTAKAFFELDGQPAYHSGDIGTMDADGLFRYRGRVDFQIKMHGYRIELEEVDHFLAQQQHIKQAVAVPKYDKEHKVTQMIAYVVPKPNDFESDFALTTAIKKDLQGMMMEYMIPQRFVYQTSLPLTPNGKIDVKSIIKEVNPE
The data set can be described thus: MST.

Data set [2] has as its target T2, L. plantarum DltA, full-length wild type, C-terminal His6 tag (Lactiplantibacillus plantarum, UniProt Q88VM6 1-508).
T2 construct: DltA (D-alanine-D-alanyl carrier protein ligase) of Lactiplantibacillus plantarum, full-length wild type, 508 residues, cloned in pT7-7; the C-terminal domain is not visible; also called LpDltA; D-alanine-D-alanyl carrier protein ligase; source: E. coli BL21 (DE3), purified (Ni-NTA, SEC)
T2 sequence (looked up): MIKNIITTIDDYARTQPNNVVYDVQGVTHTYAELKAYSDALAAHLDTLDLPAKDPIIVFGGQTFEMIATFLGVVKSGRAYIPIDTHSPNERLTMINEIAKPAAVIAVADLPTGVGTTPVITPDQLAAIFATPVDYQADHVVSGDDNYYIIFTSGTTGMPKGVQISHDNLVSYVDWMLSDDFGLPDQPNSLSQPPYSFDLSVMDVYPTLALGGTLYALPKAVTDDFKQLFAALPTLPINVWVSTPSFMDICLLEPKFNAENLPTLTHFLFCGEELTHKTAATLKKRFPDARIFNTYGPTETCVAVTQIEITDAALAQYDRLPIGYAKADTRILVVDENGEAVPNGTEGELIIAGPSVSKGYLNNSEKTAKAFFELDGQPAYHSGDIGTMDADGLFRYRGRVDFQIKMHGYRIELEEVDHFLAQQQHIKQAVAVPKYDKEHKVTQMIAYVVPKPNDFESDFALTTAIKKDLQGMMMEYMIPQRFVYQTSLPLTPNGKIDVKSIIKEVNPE
The experiment in a line: MST; one protein labelled with NHS red fluorescent dye (RED-NHS Monolith NT kit); Hepes 25 mM pH 7.5, NaCl 300 mM, Tween20 0.05%; 22 °C; triplicate. The conditions noted are these: both partners purified.

Data set [3] concerns the target T3, DltA-∆P-loop mutant, C-terminal His6 tag (Lactiplantibacillus plantarum, UniProt Q88VM6 1-508, missing the loop region comprised between T152 and K160).
T3 construct: DltA of Lactiplantibacillus plantarum, full length but missing the P-loop region comprised between Thr152 and Lys160, cloned in pT7-7; source: E. coli BL21 (DE3), purified (Ni-NTA, SEC)
T3 sequence (looked up): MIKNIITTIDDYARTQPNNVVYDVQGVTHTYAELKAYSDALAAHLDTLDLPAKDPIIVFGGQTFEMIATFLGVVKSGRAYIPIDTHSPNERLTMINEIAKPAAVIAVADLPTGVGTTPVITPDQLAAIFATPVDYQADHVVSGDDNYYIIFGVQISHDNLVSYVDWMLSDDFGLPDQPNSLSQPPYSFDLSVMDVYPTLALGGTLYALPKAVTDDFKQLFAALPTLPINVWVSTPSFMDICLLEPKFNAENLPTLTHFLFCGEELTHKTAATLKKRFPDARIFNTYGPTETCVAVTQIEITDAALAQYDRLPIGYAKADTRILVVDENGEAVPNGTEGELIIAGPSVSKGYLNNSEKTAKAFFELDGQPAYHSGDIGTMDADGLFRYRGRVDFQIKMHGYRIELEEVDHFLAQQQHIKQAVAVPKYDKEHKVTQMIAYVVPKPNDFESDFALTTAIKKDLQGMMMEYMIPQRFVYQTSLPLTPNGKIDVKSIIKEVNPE
The data set is described as above. The conditions noted are these: both partners purified.

The target in data set [4] is T4, L. plantarum AcpS, full-length wild type, C-terminal His6 tag (Lactiplantibacillus plantarum, UniProt Q88Z44 1-120).
T4 construct: AcpS (acyl-carrier protein synthase) of Lactiplantibacillus plantarum, full-length wild type, cloned in pT7-7 (NdeI/PstI); AcpS is a trimer in the crystal structure of the complex (PDB 7R49); also called LpAcpS; acyl-carrier protein synthase; source: E. coli BL21 (DE3), purified (Ni-NTA, Superdex 200 SEC)
T4 sequence (looked up): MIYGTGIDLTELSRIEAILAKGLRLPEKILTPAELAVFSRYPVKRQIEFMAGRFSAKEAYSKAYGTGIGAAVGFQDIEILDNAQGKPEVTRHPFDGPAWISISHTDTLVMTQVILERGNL
The data set can be described thus: SEC; purified AcpS mixed with apo- or holo-DltC1, mixture subjected to size exclusion chromatography. The note with it: both partners purified. For orientation: Size exclusion chromatography separates by hydrodynamic size, large species first.

For data set [5], the target named is L. plantarum DltC1, full-length wild type, C-terminal His6 tag (Lactiplantibacillus plantarum) (UniProt Q88VM8). The experiment in a line: crystal structure; AcpS/DltC1 complex at 4.8 mg/ml, sitting-drop vapor diffusion at 293 K, 20% PEG3350 and 0.2 M sodium malonate; 1.88 Å.
Data set [6] concerns the molecule itself. The data set is described as above.

What is called Kd is the constant that tells how readily two partners part at equilibrium. A low value points to higher affinity. In general, stoichiometry N refers to a count of units in the complex or per binding partner.

B1: holo-DltC1 (DltC1 fully modified by phosphopantetheine), C-terminal His6 tag (natural protein, Lactiplantibacillus plantarum, UniProt Q88VM8 1-80, looked up)
chain: MTMDDTKATVLSILADLTGEDVSSNMDVNLFDEGILDSMGSVQLLLELQNQLGIEVPVSEFQRSEWDTPAKIVAKVENLQ
modifications: phosphopantetheine (Ppant) covalently attached to Ser38, confirmed by mass spectrometry
notes: DltC1 (nc8_1734) of Lactiplantibacillus plantarum, wild type, co-expressed with wild type AcpS from pRSF-Duet1; also called Ppant-DltC1; Ppant-modified DltC; source: E. coli BL21 (DE3), co-expressed with LpAcpS from pRSF-Duet1, purified (Ni-NTA, SEC); 15N-labelled in M9 minimal media for NMR
In the case of B1, the Kd came out at 0.18 µM in data set [1] and 5.74 µM in data set [2]. Also, in data set [3], the binding result is recorded as “binds”.

B2: apo-DltC1-S38A, C-terminal His6 tag (natural protein, Lactiplantibacillus plantarum, UniProt Q88VM8 1-80, looked up)
chain: MTMDDTKATVLSILADLTGEDVSSNMDVNLFDEGILDAMGSVQLLLELQNQLGIEVPVSEFQRSEWDTPAKIVAKVENLQ
notes: DltC1 (nc8_1734) of Lactiplantibacillus plantarum, full length, catalytic Ser38 mutated to Ala, cloned in pET-28a(+); source: E. coli BL21 (DE3)-RIPL, purified (Ni-NTA, SEC); 15N- or 13C,15N-labelled in M9 minimal media for NMR
On to B2, for which the binding result in data set [4] and in data set [3] was “binds” throughout. The Kd in data set [2] worked out at 8.89 µM.

B3: L. plantarum AcpS, full-length wild type, untagged (enzyme, Lactiplantibacillus plantarum, UniProt Q88Z44 1-120, looked up)
chain: MIYGTGIDLTELSRIEAILAKGLRLPEKILTPAELAVFSRYPVKRQIEFMAGRFSAKEAYSKAYGTGIGAAVGFQDIEILDNAQGKPEVTRHPFDGPAWISISHTDTLVMTQVILERGNL
notes: AcpS of Lactiplantibacillus plantarum, full-length wild type, pT7-7 with a stop codon before the TEV cleavage site and the His6 tag; also called untagged LpAcpS^WT; untagged AcpS; source: E. coli BL21 (DE3); lysate mixed with Ni-NTA-purified DltC1, complex purified (Ni-NTA, Superdex 200 SEC)
As to B3, the stoichiometry N (AcpS:DltC1 (3:3)) in data set [5] amounted to 1. Moreover, the “stoichiometry N” value in data set [6] amounted to 3.

The values above are taken from PMC9338922, “DltC acts as an interaction hub for AcpS, DltA and DltB in the teichoic acid D-alanylation pathway of Lactiplantibacillus plantarum” (Scientific Reports, 2022).
